Laboratory results as given in patent EP2718312B1.

Molecular target: hCXCR1 (human) (UniProt P25024)
Assay: cell-based or functional assay

hCXCR1 (human), sequence (P25024 whole entry): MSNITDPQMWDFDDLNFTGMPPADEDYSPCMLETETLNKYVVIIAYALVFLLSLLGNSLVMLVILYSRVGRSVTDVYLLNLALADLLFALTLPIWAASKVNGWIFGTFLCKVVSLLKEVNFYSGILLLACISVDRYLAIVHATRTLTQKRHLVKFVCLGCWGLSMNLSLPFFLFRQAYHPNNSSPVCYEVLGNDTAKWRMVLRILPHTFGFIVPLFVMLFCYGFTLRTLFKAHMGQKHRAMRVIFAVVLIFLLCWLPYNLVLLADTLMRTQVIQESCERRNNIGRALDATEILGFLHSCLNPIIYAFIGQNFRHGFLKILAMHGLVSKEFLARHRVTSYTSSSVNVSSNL

EC50, agonist activity in an Aequorin assay | EC50, Aequorin assay | Substance
6.1 nM | – | biotinIL-8 (6-78) (from UniProt P10145 28-99) (ligand)
– | 4.2 nM | recombinant native IL-8 (from UniProt P10145 28-99)
